Experimental data reported in the supplement of paper PMC9170038.

System: MS2 coat protein
Test: apparent KD of MS2 coat protein; designed switch direction (-1 OFF switch, 1 ON switch): -1; higher = weaker reporter binding
Procedure, shortened: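 Designed RNA switches were transcribed on Illumina chips by stalled E. coli RNA polymerase and titrated with SNAP-549-labelled MS2 coat protein from 0.7 or 1.5 nM, doubling to 3 µM. Step length ran from 0.8–1.5 h at the lowest concentration to 10–20 min at the highest. The apparent KD is the median over clusters for each design, from curve-fitted normalised cluster fluorescence.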

[1] = input ligand: microRNA oligo, concentration not stated
[2] = Eterna round: R95, input ligand: FMN 200 uM
[3] = Eterna round: R95, input ligand: microRNA oligo, concentration not stated
[4] = Eterna round: R95, input ligand: none

Row | Sequence | apparent KD of MS2 coat protein (input ligand: FMN 200 uM) | apparent KD of MS2 coat protein (input ligand: none) | apparent KD of MS2 coat protein [1] | apparent KD of MS2 coat protein [2] | apparent KD of MS2 coat protein [3] | apparent KD of MS2 coat protein [4]
1 | ACGUUGUCAGGAUAUCGUUAAUUUAGUUGUUUGUAUUAGUUCGAGAAGGGACAUGAGGAUCACCCAUGUUUGAA [Ex4 #34] (Eterna round: R97, puzzle: Exclusion 4) | 36.2 nM | 31.5 nM | – | – | – | –
2 | ACUAAGGUAGGAUAUACGUGCGUGAUCGUGCCUUAGCUGGCACAUGAGGAUCACCCAUGUAGAAGGGCCAGACA [Esraleon] (Eterna round: R97, puzzle: Exclusion 2) | 17.4 nM | 19.8 nM | – | – | – | –
3 | ACUCAGUGAGGAUAUCGCCAGAGAACCGUAACGGUCUCUGAUGAGAAGGCACAUGAGGAUCACCCAUGUAAGCA [EX4 C.3] (Eterna round: R97, puzzle: Exclusion 4) | 278 nM | 174 nM | – | – | – | –
4 | ACUCGACAUGAGGAUCACCCAUGUGAGGAUAUGGCCUGUAUGGCGUGAGCUGGCUCAGUCAGAAGGCGCGUGGG [salish99_ex1_r4_047] (Eterna round: R97, puzzle: Exclusion 1) | 151 nM | 123 nM | – | – | – | –
5 | ACUCGACAUGAGGAUCACCCAUGUGAGGAUAUGGCCUGUAUGGCGUGAGCUGGCUCUGUCAGAAGGCGCGUGGG [salish99_ex1_r4_046] (Eterna round: R97, puzzle: Exclusion 1) | 55.5 nM | 59 nM | – | – | – | –
6 | ACUCUUCCUGUUAGGAUAUGCAUCGGGCUUCCGCAGCAGAAGGAACAUGAGGAUCACCCAUGUCAAAUAAAAUC (Eterna round: R97, puzzle: Brourd's mod of Exclusion 4) | 33.1 nM | 17.4 nM | – | – | – | –
7 | ACUCUUCUAGUUAGGAUAUGCAUCGGGCUUCCGCAGCAGAAGGAACAUGAGGAUCACCCAUGUCAAAUAAAAUC (Eterna round: R97, puzzle: Brourd's mod of Exclusion 4) | 34.8 nM | 20.6 nM | – | – | – | –
8 | ACUGGAGCAGGAUAUAUAUGACGUGCUUCGGCACGAAGGUCACAUGAGGAUCACCCAUGUAGAAGGGCUCCAGU [E2/9-D1] (Eterna round: R97, puzzle: Exclusion 2) | 225 nM | 46.7 nM | – | – | – | –
9 | ACUGUUUGAUACCUCUAAUACAUGAGGAUCACCCAUGUUAUCGAGGAUAUGCAUUAGAGUGGUUAGCAGAAGGCGAAGUAAUUG [JR_ExcNG3_Sub031] (Eterna round: R96, puzzle: Exclusion NG 3) | 17 nM | 21.6 nM | 14.2 nM | – | – | –
10 | ACUUAUUGAGGAUAUACAGAUUAUUACAUGAGGAUCACCCAUGUUCUUCAAUGUAUAUAUGUAGAAGGCAGAAGAU [Mat - Exclusion 5 - JL Mod - D15] (Eterna round: R97, puzzle: Exclusion 5) | 177 nM | 57.5 nM | – | – | – | –
11 | ACUUAUUGAGGAUAUACAUAAAUUUACAUGAGGAUCACCCAUGUUCUUCUAUGUAUAUAUGUAGAAGGCAGAAGAU [Mat - Exclusion 5 - JL Mod - D32] (Eterna round: R97, puzzle: Exclusion 5) | 29.2 nM | 19.3 nM | – | – | – | –
12 | ACUUCGUCAGGAUAUCGAGUGACCAAGUACACUGGCUUGGCUGAGAAGGGACAUGAGGAUCACCCAUGUGGGAG [Eternabot (L1) Solution 52] (Eterna round: R97, puzzle: Exclusion 4) | 356 nM | 187 nM | – | – | – | –
13 | AGAAACUCAAGAGGAUAUCACAUGAGGAUCACCCAUGUAUAGCGCGCUAUGCUAGUCCUCGUAUUUGAGAAGGUUUGAUAAAUG [Mat - Exclusion NG 2 - Mod of JL - D78] (Eterna round: R96, puzzle: Exclusion NG 2) | 16.2 nM | 16.9 nM | 14.2 nM | – | – | –
14 | AGAAGAAAAGAGAUUUGCUCGUCUUAUAAGUAUGAAGUAACAUGAGGAUCACCCAUGUAAGUCUAGUGAGAAGGAAG [JR_SV3TOV2_Sub001] (puzzle: Sensor v3, turn-off variant 2) | – | – | – | 22.9 nM | 50 nM | 24.4 nM
15 | AGAAGUGCCGAGGAUAUCCAGGCAAUCUCGUUCGGAGAAGGCGGCACUUGAGGAUCACCCAAGUGCUCCUAAGA [Islariat] (Eterna round: R97, puzzle: Exclusion 6) | 52.1 nM | 14.1 nM | – | – | – | –
16 | AGACAGUCAGGAUAUACAUGAGGAUCACCCAUGUUAAGAAGAGAAAGGGCAGGAAGAGGUAGAAGGGACAAGAA [JR_Exclu3_Sub033] (puzzle: Exclusion 3) | – | – | – | 21.1 nM | 23.6 nM | 29.5 nM
17 | AGAGAAAAUCUAGGAUAUGUGUAUGCCGCGUGCGCAGAAGGAGACAUGAGGAUCACCCAUGUAAAGAGACAGAAGACGACCAAA [Matt's Exclusion] (Eterna round: R96, puzzle: Exclusion NG 1) | 55.7 nM | 67.5 nM | 38.7 nM | – | – | –
18 | AGAGUACUGCGAGGAUAUACAUGAGGAUCACCCAUGUGGUGGUGUGAGGCAAAGCCUCACACCAUGUAGAAGGCGCAGUACUCA [Mat - Exclusion NG 2 - Mod of JL - D20] (Eterna round: R96, puzzle: Exclusion NG 2) | 159 nM | 42.3 nM | 26.6 nM | – | – | –
19 | AGAGUGCUGCGAGGAUAUACAUGAGGAUCACCCAUGUAAACCUGUGAGGCAAAGCCUCACAGGAUGUAGAAGGCGCAGUACUCA [Mat - Exclusion NG 2 - Mod of JL - D40] (Eterna round: R96, puzzle: Exclusion NG 2) | 20 nM | 19.5 nM | 8.82 nM | – | – | –
20 | AGAGUGCUGCGAGGAUAUACAUGAGGAUCACCCAUGUAAACGUGUGAGGCAAAGCCUCACACGAUGUAGAAGGCGCAGUACUCA [Mat - Exclusion NG 2 - Mod of JL - D37] (Eterna round: R96, puzzle: Exclusion NG 2) | 19.6 nM | 21.5 nM | 11.7 nM | – | – | –
21 | AGAGUGCUGCGAGGAUAUACAUGAGGAUCACCCAUGUGGUCCUGUGAGGGAAAACCUCACAGGAUGUAGAAGGCGCAGUACUCA [Mat - Exclusion NG 2 - Mod of JL - D47] (Eterna round: R96, puzzle: Exclusion NG 2) | 53.2 nM | 16.3 nM | 10.9 nM | – | – | –
22 | AGAUAGUCAGGAUAUUAGUAAUAAAAGGAUAAUAAUAUUACUGAGAAGGGACAUGAGGAUCACCCAUGUAAUAU [JR_Ex4_Sub061] (Eterna round: R97, puzzle: Exclusion 4) | 44.5 nM | 27.5 nM | – | – | – | –
23 | AGAUAGUGCAGAGGAUAUCGUAAUAGAAAGAAUCGAGAAGGCUGACAUGAGGAUCACCCAUGUGAUGUCUUGAGACUACAUGGU [Prohibition 34 - Jieux - Exclusion NG 1] (Eterna round: R96, puzzle: Exclusion NG 1) | 460 nM | 83.1 nM | 62.8 nM | – | – | –
24 | AGAUAGUGCUGAGGAUAUCUUAAUAGAAAGAAUAGAGAAGGCGGACAUGAGGAUCACCCAUGUGAGGUCUUGAGACUACAUGGU [Prohibition 36 - Jieux - Exclusion NG 1] (Eterna round: R96, puzzle: Exclusion NG 1) | 366 nM | 135 nM | 71.6 nM | – | – | –
